# Laboratory results taken from publication PMC3992121 (Proteins, 2013).
# B1: BaiA1, 3α-Hydroxysteroid Dehydrogenase from Clostridium scindens VPI 12708 (enzyme, UniProt P07914 1-249, looked up)
# chain: MKLVQDKITIITGGTRGIGFAAAKLFIENGAKVSIFGETQEEVDTALAQLKELYPEEEVLGFAPDLTSRDAVMAAVGTVAQKYGRLDVMINNAGITMNSVFSRVSEEDFKNIMDINVNGVFNGAWSAYQCMKDAKQGVIINTASVTGIYGSLSGIGYPTSKAGVIGLTHGLGREIIRKNIRVVGVAPGVVDTDMTKGLPPEILEDYLKTLPMKRMLKPEEIANVYLFLASDLASGITATTISVDGAYRP
# B2: BaiA2, 3α-Hydroxysteroid Dehydrogenase from Clostridium scindens VPI 12708 (enzyme, UniProt P19337 1-249, looked up)
# chain: MNLVQDKVTIITGGTRGIGFAAAKIFIDNGAKVSIFGETQEEVDTALAQLKELYPEEEVLGFAPDLTSRDAVMAAVGQVAQKYGRLDVMINNAGITSNNVFSRVSEEEFKHIMDINVTGVFNGAWCAYQCMKDAKKGVIINTASVTGIFGSLSGVGYPASKASVIGLTHGLGREIIRKNIRVVGVAPGVVNTDMTNGNPPEIMEGYLKALPMKRMLEPEEIANVYLFLASDLASGITATTVSVDGAYRP
# modifications: selenomethionine (protein expressed in a selenomethionine-containing medium for structure determination)
# Target: the molecule itself
# Test: SEC
row,Protein,stoichiometry N
1,B1,4
2,B2,4
